In PMC7427744, “Using singular perturbation theory to determine kinetic parameters in a non-standard coupled enzyme assay” (Journal of Mathematical Biology, 2020):

Assays:
purified protein [1] = substrate: CC(N)CC(=O)O; assay: purified protein; assay type: biochemical, Cupriavidus necator; settings: co-substrate 5 mM pyruvate (assumed saturating), 2.5 mM NAD+, 5 uM PLP, sodium carbonate buffer pH 10, 30 C
purified protein [2] = substrate: NCCCCC(=O)O; assay: purified protein; assay type: biochemical, Cupriavidus necator; settings: co-substrate 5 mM pyruvate (assumed saturating), 2.5 mM NAD+, 5 uM PLP, sodium carbonate buffer pH 10, 30 C

B1: CnAptA (Cupriavidus necator H16) (protein)
chain: MDAAKTVIPDLDALWMPFTANRQYKAAPRLLASASGMYYTTHDGRQILDGCAGLWCVAAGHCRTEIAEAVARQAATLDYAPPFQMGHPLSFEAATKVAAIMPQGLDRIFFTNSGSESVDTALKIALAYHRARGEGQRTRFIGRERGYHGVGFGGMAVGGIGPNRKAFSANLMPGTDHLPATLNIAEAAFSKGQPQWGAHLADELERILALHDPSNVAAVIVEPLAGSAGVLVPPVGYLEKLREITSKHGILLIFDEVITAFGRLGAATAAERFKVTPDLITMAKAINNAAVPMGAVAVRREVHDTVVNSAAPGAIELLHGYTYSGHPLAAAAAIATLDLYQRENLFGRAAELAPVFEAAVHGVRGAPHVKDIRNYGLVAGIELEPRPGQPGARAYEAFLKCLELGVLVRYTGDILAFSPPLIISEAQIGELFDTVKKALQDIK
notes: E. coli ER2566 host; 47 kDa
Km (purified protein [1]): 1300 µM | Km (purified protein [2]): 930 µM
